Reference: PMC11229326, “Structural characterization of two prototypical repressors of SorC family reveals tetrameric assemblies on DNA and mechanism of function” (Nucleic Acids Research, 2024)

Tests used:
DeoR [1] = molecular target: T1, DeoR (Bacillus subtilis, UniProt P39140 2-313); assay: SEC; about 56 uM DeoR, protein:DNA 4:1; MST: 50 mM Tris-HCl pH 7.5, 150 mM NaCl, 50 mM MgCl2, 2 mM EDTA, 0.02% beta-mercaptoethanol; DeoR SEC mixes incubated 30 min on ice; CggR storage 20 mM Tris-HCl pH 7.5, 100 mM NaCl, 0.02% beta-mercaptoethanol, complex formed 30 min on ice; conditions: protein: recombinant; tags: N-terminal GIDPFT cloning artifact after TEV cleavage (His6-V5 removed); chain copies: 4; blunt
T1 sequence: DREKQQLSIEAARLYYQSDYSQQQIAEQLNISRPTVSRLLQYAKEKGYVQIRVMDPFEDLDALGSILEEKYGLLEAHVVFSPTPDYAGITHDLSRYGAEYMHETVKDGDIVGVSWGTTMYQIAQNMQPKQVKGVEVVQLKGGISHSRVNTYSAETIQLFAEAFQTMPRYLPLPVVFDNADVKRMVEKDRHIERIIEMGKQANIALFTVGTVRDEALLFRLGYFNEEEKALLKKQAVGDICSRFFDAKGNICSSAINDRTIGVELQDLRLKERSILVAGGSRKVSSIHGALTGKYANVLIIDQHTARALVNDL

DeoR [2] = molecular target: T1, DeoR; assay: MST; DeoR 4 uM; 50 mM MgCl2; Hill coefficient slightly below 1; MST: 50 mM Tris-HCl pH 7.5, 150 mM NaCl, 50 mM MgCl2, 2 mM EDTA, 0.02% beta-mercaptoethanol; DeoR SEC mixes incubated 30 min on ice; CggR storage 20 mM Tris-HCl pH 7.5, 100 mM NaCl, 0.02% beta-mercaptoethanol, complex formed 30 min on ice; conditions: protein: recombinant; tags: N-terminal GIDPFT cloning artifact after TEV cleavage (His6-V5 removed); chain copies: 4; blunt
CggR = CggR (Bacillus subtilis, UniProt O32253 1-340); assay: cryo-EM; 4.3 A; tetramer, no effector; MST: 50 mM Tris-HCl pH 7.5, 150 mM NaCl, 50 mM MgCl2, 2 mM EDTA, 0.02% beta-mercaptoethanol; DeoR SEC mixes incubated 30 min on ice; CggR storage 20 mM Tris-HCl pH 7.5, 100 mM NaCl, 0.02% beta-mercaptoethanol, complex formed 30 min on ice; conditions: protein: recombinant; tags: N-terminal GIDPFT cloning artifact after TEV cleavage (His6-V5 removed); chain copies: 4; blunt
DeoR [3] = molecular target: T1, DeoR; assay: X-ray crystallography; 3.7 A; protein about 8 mg/ml; 75 mM CaCl2, 25 mM MgCl2; MST: 50 mM Tris-HCl pH 7.5, 150 mM NaCl, 50 mM MgCl2, 2 mM EDTA, 0.02% beta-mercaptoethanol; DeoR SEC mixes incubated 30 min on ice; CggR storage 20 mM Tris-HCl pH 7.5, 100 mM NaCl, 0.02% beta-mercaptoethanol, complex formed 30 min on ice; conditions: protein: recombinant; tags: N-terminal GIDPFT cloning artifact after TEV cleavage (His6-V5 removed); chain copies: 4; blunt
[4] = molecular target: the molecule itself; assay: crystal structure; DeoR co-crystallised with the 18 bp DNA duplex OL18 (left half-operator); hanging drop, 18°C; two dimers in the asymmetric unit, tetramer formed with a symmetry-related dimer; 3.7 Å
[5] = molecular target: the molecule itself; assay: cryo-EM structure; CggR with the 45 bp operator DNA OLR (molar ratio 4:1.5), SEC-purified complex, 0.86 mg/ml; C2 symmetry, 4.3 Å
[6] = molecular target: the molecule itself; assay: cryo-EM 2D classification; purified CggR-OLR complex (0.86 mg/ml) with 2 mM FBP, about 15 min on ice
DeoR [7] = molecular target: T1, DeoR; assay: SEC; about 56 uM DeoR, protein:DNA 2:1; MST: 50 mM Tris-HCl pH 7.5, 150 mM NaCl, 50 mM MgCl2, 2 mM EDTA, 0.02% beta-mercaptoethanol; DeoR SEC mixes incubated 30 min on ice; CggR storage 20 mM Tris-HCl pH 7.5, 100 mM NaCl, 0.02% beta-mercaptoethanol, complex formed 30 min on ice; conditions: protein: recombinant; tags: N-terminal GIDPFT cloning artifact after TEV cleavage (His6-V5 removed); chain copies: 4; blunt

B1: OLR39 (dsDNA)
DNA 1: ATTGAACAAAATTTCAATTACCAATTTACATATGTTCAA
DNA 2: TTGAACATATGTAAATTGGTAATTGAAATTTTGTTCAAT
binding result (DeoR [1]): binds

B2: OLR65 (dsDNA)
DNA 1: GTGACACGTTCAAACCTTTCATTGAACAAAATTTCAATTACCAATTTACATATGTTCAAAAGTCG
DNA 2: CGACTTTTGAACATATGTAAATTGGTAATTGAAATTTTGTTCAATGAAAGGTTTGAACGTGTCAC
Kd (DeoR [2]): ~30 µM

B3: CggR OLR (45 bp) (dsDNA)
DNA 1: TGACGGGACGTTTTTTGTCATAGCGGGACATATAATGTCCAGCAA
DNA 2: TTGCTGGACATTATATGTCCCGCTATGACAAAAAACGTCCCGTCA
binding result (CggR): binds

B4: OL18 (dsDNA)
DNA 1: ATTGAACAAAATTTCAAT
DNA 2: ATTGAAATTTTGTTCAAT
binding result (DeoR [3]): binds

B5: DeoR from Bacillus subtilis (deoxyribonucleoside regulator, SorC/DeoR subfamily repressor) (natural protein)
chain: GIDPFTDREKQQLSIEAARLYYQSDYSQQQIAEQLNISRPTVSRLLQYAKEKGYVQIRVMDPFEDLDALGSILEEKYGLLEAHVVFSPTPDYAGITHDLSRYGAEYMHETVKDGDIVGVSWGTTMYQIAQNMQPKQVKGVEVVQLKGGISHSRVNTYSAETIQLFAEAFQTMPRYLPLPVVFDNADVKRMVEKDRHIERIIEMGKQANIALFTVGTVRDEALLFRLGYFNEEEKALLKKQAVGDICSRFFDAKGNICSSAINDRTIGVELQDLRLKERSILVAGGSRKVSSIHGALTGKYANVLIIDQHTARALVNDL
notes: cloning artifact that remains at the N-terminus after TEV PR cleavage; DBD residues 1-55, EBD residues 56-313; in the crystal model residue T1 is the last residue of the cloning artifact; also called apo-DeoR; source: E. coli BL21 (DE3), purified (Ni-NTA, TEV PR cleavage, reverse Ni-NTA); LB broth for structural studies, minimal medium for mass photometry and SEC; not shown: His6, N-terminal, …
stoichiometry N [4]: 4

B6: CggR from Bacillus subtilis (central glycolytic genes regulator, SorC/CggR subfamily repressor) (natural protein)
chain: GIDPFTMNQLIQAQKKLLPDLLLVMQKRFEILQYIRLTEPIGRRSLSASLGISERVLRGEVQFLKEQNLVDIKTNGMTLTEEGYELLSVLEDTMKDVLGLTLLEKTLKERLNLKDAIIVSGDSDQSPWVKKEMGRAAVACMKKRFSGKNIVAVTGGTTIEAVAEMMTPDSKNRELLFVPARGGLGEDVKNQANTICAHMAEKASGTYRLLFVPGQLSQGAYSSIIEEPSVKEVLNTIKSASMLVHGIGEAKTMAQRRNTPLEDLKKIDDNDAVTEAFGYYFNADGEVVHKVHSVGMQLDDIDAIPDIIAVAGGSSKAEAIEAYFKKPRNTVLVTDEGAAKKLLRDE
notes: cloning artifact that remains at the N-terminus after TEV PR cleavage; DBD and EBD connected by residues 92-94; also called apo-CggR; source: E. coli BL21 (DE3), purified (Ni-NTA, hydroxyapatite, TEV PR cleavage, reverse Ni-NTA, Mono-Q ion exchange); not shown: His6, N-terminal, cleaved
stoichiometry N [5]: 4
stoichiometry N [6]: 2

B7: OR24 (dsDNA)
DNA 1: TACCAATTTACATATGTTCAAAAG
DNA 2: CTTTTGAACATATGTAAATTGGTA
binding result (DeoR [7]): no binding

B8: OL44 (dsDNA)
DNA 1: CACGTTCAAACCTTTCATTGAACAAAATTTCAATTACCAATTTACA
DNA 2: TGTAAATTGGTAATTGAAATTTTGTTCAATGAAAGGTTTGAACGTG
binding result (DeoR [1]): no binding
